Consider 1 sequence from patent US20100036106.

The data set addresses Glutathione S-transferase (GST) (Schistosoma japonicum) (UniProt P08515). As to the kind of experiment: FP.

Glutathione S-transferase (GST) (Schistosoma japonicum), sequence (P08515 2-218): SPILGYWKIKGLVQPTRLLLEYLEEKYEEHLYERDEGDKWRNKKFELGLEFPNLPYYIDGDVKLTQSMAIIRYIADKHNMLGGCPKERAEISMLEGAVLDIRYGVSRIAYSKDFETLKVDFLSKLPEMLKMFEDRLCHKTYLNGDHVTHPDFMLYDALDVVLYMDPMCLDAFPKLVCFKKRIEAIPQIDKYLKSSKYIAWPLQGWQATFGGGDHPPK

Broadly, the Kd is the constant that tells how readily two partners part at equilibrium. Lower therefore signals tighter binding. With “GGUAGAUACGAUGGANNNNNNNNNNNNNNNNNNNNNNNNNNNNNNCAUGACGCGCAGCCAA [18th RNA pool]”, the Kd worked out at 400 nM. In other words, the sub-micromolar range.
